# From article PMC11702068, “NEK8 promotes the progression of gastric cancer by reprogramming asparagine metabolism” (Molecular Medicine, 2025)
# B1: Flag-ASNS (wild type) [not stated] / NEK8 (partner in the co-immunoprecipitation with ASNS-WT and ASNS-S349A) [not stated] (parent)
# chain 1: MCGIWALFGSDDCLSVQCLSAMKIAHRGPDAFRFENVNGYTNCCFGFHRLAVVDPLFGMQPIRVKKYPYLWLCYNGEIYNHKKMQQHFEFEYQTKVDGEIILHLYDKGGIEQTICMLDGVFAFVLLDTANKKVFLGRDTYGVRPLFKAMTEDGFLAVCSEAKGLVTLKHSATPFLKVEPFLPGHYEVLDLKPNGKVASVEMVKYHHCRDVPLHALYDNVEKLFPGFEIETVKNNLRILFNNAVKKRLMTDRRIGCLLSGGLDSSLVAATLLKQLKEAQVQYPLQTFAIGMEDSPDLLAARKVADHIGSEHYEVLFNSEEGIQALDEVIFSLETYDITTVRASVGMYLISKYIRKNTDSVVIFSGEGSDELTQGYIYFHKAPSPEKAEEESERLLRELYLFDVLRADRTTAAHGLELRVPFLDHRFSSYYLSLPPEMRIPKNGIEKHLLRETFEDSNLIPKEILWRPKEAFSDGITSVKNSWFKILQEYVEHQVDDAMMANAAQKFPFNTPKTKEGYYYRQVFERHYPGRADWLSHYWMPKWINATDPSARTLTHYKSAVKA
# chain 2: MEKYERIRVVGRGAFGIVHLCLRKADQKLVIIKQIPVEQMTKEERQAAQNECQVLKLLNHPNVIEYYENFLEDKALMIAMEYAPGGTLAEFIQKRCNSLLEEETILHFFVQILLALHHVHTHLILHRDLKTQNILLDKHRMVVKIGDFGISKILSSKSKAYTVVGTPCYISPELCEGKPYNQKSDIWALGCVLYELASLKRAFEAANLPALVLKIMSGTFAPISDRYSPELRQLVLSLLSLEPAQRPPLSHIMAQPLCIRALLNLHTDVGSVRMRRAEKSVAPSNTGSRTTSVRCRGIPRGPVRPAIPPPLSSVYAWGGGLGTPLRLPMLNTEVVQVAAGRTQKAGVTRSGRLILWEAPPLGAGGGSLLPGAVEQPQPQFISRFLEGQSGVTIKHVACGDFFTACLTDRGIIMTFGSGSNGCLGHGSLTDISQPTIVEALLGYEMVQVACGASHVLALSTERELFAWGRGDSGRLGLGTRESHSCPQQVPMPPGQEAQRVVCGIDSSMILTVPGQALACGSNRFNKLGLDHLSLGEEPVPHQQVEEALSFTLLGSAPLDQEPLLSIDLGTAHSAAVTASGDCYTFGSNQHGQLGTNTRRGSRAPCKVQGLEGIKMAMVACGDAFTVAIGAESEVYSWGKGARGRLGRRDEDAGLPRPVQLDETHPYTVTSVSCCHGNTLLAVRSVTDEPVPP
# Variants of: B1
# Experiment: co-immunoprecipitation (IP: ASNS, IB: NEK8), band intensity quantified
# Conditions: parent: 4.9, read off a plot
row,Variant,response
1,chain 1 S349A,3.1

# Variants of: B1
# Experiment: co-immunoprecipitation (IP: Flag-ASNS, IB: NEK8), band intensity quantified
# Conditions: parent: 5.4, read off a plot
row,Variant,response
1,chain 1 S349A,2.7
